We go through 4 molecules from patent US20030129638A1, “Reagents for antagonizing the protein-protein interaction between Raf-1 and apoptosis signal-regulating kinase and uses therefor” (priority 2001, published 2003).

One assay relates to ERK1/2 activation. The assay is described as follows: Western blot of ERK1/2 activation in HeLa cell lysates. The assay is classed as cell-based, human. To be noted: HeLa cells, 60 μM. The protocol:
Cell lysates from HeLa cells treated with 60 μM PD98059 or vehicle were probed by Western blotting with either an ERK1/2 activation-specific antibody (Upper; Cell Signaling Technology) or pan-ERK1/2 antibody (Lower; Cell Signaling Technology).
To test the hypothesis that Raf-1 regulates ASK1-induced apoptosis through the MEK-ERK pathway, we used two widely used MEK antagonists, PD98059 and U0126 (Dudley et al. (1995) Proc. Natl. Acad. Sci. USA 92:7686-7689; Favata et al. (1998) J. Biol. Chem. 273:18623-18632). […] To confirm the observations with PD98059 and U0126, we used a dominant negative mutant of MEK1, MEK1dn, to interfere with MEK signaling (Sugimoto et al. (1998) EMBO J. 17:1717-1727).
In general terms: Immunoblotting shows a protein as a band on a membrane.

Assay [1] concerns ASK1-induced apoptosis in HeLa cells. Nature of the assay: β-gal cell morphology-based apoptosis assay: effect of MEK inhibition on Raf-1 inhibition of ASK1-induced cell death. Set-up: species or system human. Conditions: PD98059 60 μM for 18 h. On the procedure:
FIG. 2B is a graphic summary of the effect of MEK inhibition by PD98059 on Raf-1 function. Six hours after transfection as in A, HeLa cells were treated with PD98059 (60 μM) or vehicle (DMSO) for 18 h before being stained with 5-bromo-4-chloro-3-indolyl-D-galactopyranoside and scored for apoptosis in a blind fashion. Specific apoptosis is derived by subtracting the level of apoptosis seen in pcDNA3-transfected cells. At least 500 cells were scored for each sample. Results shown are representative of three independent experiments.
For the nuclear morphology assays (Zhang et al. (1999) Proc. Natl. Acad. Sci. USA 96:8511-8515), 2×10^5 HeLa cells were cultured in 35-mm dishes containing glass coverslips. […] Twenty-four hours later, cells on the glass coverslips were washed, fixed (0.5% glutaraldehyde/2% formaldehyde in PBS), stained with 4′,6-diamidino-2-phenylindole (DAPI) in Vectashield mounting medium (Vector Laboratories), and visualized by using a fluorescence microscope as described (Zhang et al. (1999) Proc. Natl. Acad. Sci. USA, 96:8511-8515). Transfected cells with fragmented nuclei were scored for apoptosis in a blind fashion. […] Twenty-four hours after transfection, cells were fixed, stained with 5-bromo-4-chloro-3-indolyl-β-D-galactopyranoside, and scored for apoptosis as described (Chang et al. (1998) Science 281:1860-1863). […]

In assay [2] the target is T1, protein-protein interaction between Raf-1 and ASK1 (Homo sapiens, UniProt P04049).
T1 construct: expressed in transfected cells; host or cells: COS7
Nature of the assay: Coimmunoprecipitation with anti-Raf-1 antibody and Western blot for ASK1 in transfectants expressing ASK1 N-terminal domain fusion peptides. The assay is classed as cell-based. Conditions: fusion peptide expressed in cells, FIG. 7. The protocol:
FIG. 7 is a Western blot analysis of Raf-1 immunoprecipitates obtained from transfectants comprising N-terminal domain truncation peptides.
(§1) Forty-eight hours after transfection, 4×10^5 COS7 cells were lysed in 300 μl of lysis buffer (0.2% Nonidet P-40/10 mM Hepes, pH 7.4/150 mM NaCl/5 mM NaF/2 mM Na3VO4/5 mM Na4P2O7/10 μg/ml aprotonin/10 μg/ml leupeptin/1 mM phenylmethylsulfonyl fluoride). Cell extracts were clarified by centrifugation and used for immunoprecipitation with various antibodies and protein G-Sepharose (Amersham Pharmacia). Immunocomplexes were washed four times with lysis buffer containing 1% Nonidet P-40 or RIPA buffer (1% Nonidet P-40/0.5% sodium deoxycholate/0.1% SDS/137 mM NaCl/20 mM Tris.HCl, pH 7.5) and resolved on SDS/PAGE (12.5%) for Western blotting. The enzyme-linked immunoblotting procedures were performed essentially as described (Zhang et al. (1999) Proc. Natl. Acad. Sci. USA 96:8511-8515). Corresponding secondary antibodies were used against each primary antibody: horseradish peroxidase-conjugated goat anti-mouse IgG for monoclonal antibodies and horseradish peroxidase-conjugated goat anti-rabbit IgG for polyclonal antibodies (Santa Cruz Biotechnology). Cross-reacting materials were visualized by using the ECL detection reagents (Amersham Pharmacia).
Coimmunoprecipitation experiments were performed using anti-Raf-1 antibody (RI9120, Transduction Laboratories) as described. […] Raf-1 immunoprecipitates were analyzed with antibodies specific for ASK1 and Raf-1 (upper panel). HA-ASK1 protein present in Raf-1 immunoprecipitates was probed with anti-ASK1 antibody H-300 (1:2000, Santa Cruz;). […] The effect of this disruption is manifested as the absence of ASK1 protein in the Raf-1 immunoprecipitates.

In assay [3] the test system is Raf-1 prosurvival effects on ASK1-induced cell death in COS7 cells. Nature of the assay: DNA content-based flow cytometric apoptosis assay (sub-G0 fraction) in transfected COS7 cells. To be noted: COS7 cells cotransfected with HA-ASK1, Flag-Raf-1 and ASK1 truncation construct (0.3 μg), FIG. 8. The assay is classed as cell-based. The protocol:
FIG. 8 provides a graphic representation of data obtained from a DNA content-based flow cytometric apoptosis assay. The fraction of transfected cells with sub-G0 DNA content in each sample was quantified. The data presented are representative of three independent experiments.
The DNA content-based apoptosis assay was performed with a fluorescence-activated cell sorter as described (Spector et al. (1997) Cells: A Laboratory Manual (Cold Spring Harbor Lab. Press, Plainview, N.Y.). Briefly, COS7 cells (2×10^5) were cotransfected with pEGFP-F (0.4 μg; CLONTECH) encoding a farnesylated eGFP and test plasmids (1.6 μg total). Twenty-four hours after transfection, total cells were trypsinized, resuspended in PBS, fixed in ice-cold ethanol followed by overnight incubation, treated with RNase A (Sigma-Aldrich), and stained with propidium iodide (Sigma-Aldrich). Samples were analyzed with a FACSort flow cytometer (Becton Dickinson). The DNA content of transfected cells was determined by using WINMDI 2.8 software (Trotter, Scripps Research Institute, La Jolla, Calif.).
A DNA content-based flow cytometric apoptosis assay was performed to evaluate the effects of the ASK1 N-terminal domain truncation peptides on the prosurvival effects of Raf-1. COS7 cells were transfected with indicated plasmids encoding HA-ASK1 (1.0 μg), Flag-Raf-1 (0.3 μg) or ASK1 truncation constructs (0.3 μg) as indicated along with an EGFP-F expression vector (0.4 μg) as described.
(In general: In flow cytometry, cells or beads pass a laser one at a time.)

The next assay deals with Raf-1 (Homo sapiens, UniProt P04049). The assay is described as follows: Association of ASK1 N-terminal domain truncation peptides with Raf-1. The assay is classed as binding. To be noted: N-terminal domain fusion peptide. The protocol:
FIG. 6A provides a schematic representation of the ASK1 N-terminal domain truncation proteins used herein. Association of ASK1 mutants with Raf-1 is summarized. Positive interaction is represented by (+).
as §1
FIG. 6A provides a schematic representation of the ASK1 N-terminal domain truncation peptides used herein. Various truncation mutants of the ASK1 N-terminal domain were generated as shown and expressed as fusion proteins with a (His)6-tag at the N-terminus and an HA-tag at the C-terminus, except ASK-N69-163 which has the N-terminal (His)6-tag but a GST-tag at the C-terminus. Association of ASK1 mutants with Raf-1 is summarized. Positive interaction is represented by (+).

In the case of `COc1cccc(-c2cc(=O)c3ccccc3o2)c1N` [PD98059], in the assay on ERK1/2 activation, the “Activation of ERK1/2” value is given as “diminished the activation of ERK1/2”. Besides, the “Effect on the ability of Raf-1 to inhibit ASK1-induced cell death” value in assay [1] is “did not decrease the ability of Raf-1 to inhibit ASK1-induced cell death”.

B1: SEQ ID NO:7: amino acid residues 6 to 163 of the full-length human ASK1 sequence set forth in SEQ ID NO:1 (protein, UniProt Q99683 6-163, looked up, fragment)
chain: DEGITFSVPPFAPSGFCTIPEGGICRRGGAAAVGEGEEHQLPPPPPGSFWNVESAAAPGIGCPAATSSSSATRGRGSSVGGGSRRTTVAYVINEASQGQLVVAESEALQSLREACETVGATLETLHFGKLDFGETTVLDRFYNADIAVVEMSDAFRQP
In the case of B1, the “Disruption of the Raf-1/ASK1 interaction (ASK1 in Raf-1 immunoprecipitates)” value (“Disruption of the Raf-1/ASK1 interaction” for short) in assay [2] is “disrupts the protein-protein interaction between Raf-1 and ASK1”. The “Effect on Raf-1 prosurvival effects on ASK1-induced cell death” value (shortened to “Effect on Raf-1 prosurvival effects”) in assay [3] is “eliminates Raf-1 prosurvival effects on ASK1-induced cell death”. Also, the “Binding to Raf-1” value in the assay with Raf-1 is on record as “ability to bind Raf-1”.

B2: SEQ ID NO:3: amino acid residues 6 to 230 of full-length human ASK1 (SEQ ID NO:1), expressed as a (His)6/HA-tagged fusion peptide (protein, UniProt Q99683 6-230, looked up, fragment)
chain: DEGITFSVPPFAPSGFCTIPEGGICRRGGAAAVGEGEEHQLPPPPPGSFWNVESAAAPGIGCPAATSSSSATRGRGSSVGGGSRRTTVAYVINEASQGQLVVAESEALQSLREACETVGATLETLHFGKLDFGETTVLDRFYNADIAVVEMSDAFRQPSLFYHLGVRESFSMANNIILYCDTNSDSLQSLKEIICQKNTMCTGNYTFVPYMITPHNKVYCCDSSF
modifications: His6/HA tag
Turning to B2, the “Disruption of the Raf-1/ASK1 interaction” value in assay [2] was “disrupts the protein-protein interaction between Raf-1 and ASK1”. Besides, the “Effect on Raf-1 prosurvival effects” value in assay [3] is “eliminates Raf-1 prosurvival effects on ASK1-induced cell death”. In the assay with Raf-1, the “Binding to Raf-1” value was “ability to bind Raf-1”.

B3: SEQ ID NO:8: amino acid residues 69 to 230 of the full-length human ASK1 sequence set forth in SEQ ID NO:1 (protein, UniProt Q99683 69-230, looked up, fragment)
chain: AATSSSSATRGRGSSVGGGSRRTTVAYVINEASQGQLVVAESEALQSLREACETVGATLETLHFGKLDFGETTVLDRFYNADIAVVEMSDAFRQPSLFYHLGVRESFSMANNIILYCDTNSDSLQSLKEIICQKNTMCTGNYTFVPYMITPHNKVYCCDSSF
As for B3, in assay [2], the “Disruption of the Raf-1/ASK1 interaction” value is “disrupts the protein-protein interaction between Raf-1 and ASK1”. Also, the “Effect on Raf-1 prosurvival effects” value in assay [3] is “eliminates Raf-1 prosurvival effects on ASK1-induced cell death”. Moreover, the “Binding to Raf-1” value in the assay with Raf-1 is listed as “ability to bind Raf-1”.
